Like-named read-outs stand apart in the source and are kept apart here. Where only a bound is given, the exact number is not on record here.

What all share (assay): split reporter
Experiment [1] deals with T1, CLuc-EXO70H1 (A. thaliana, UniProt Q8VY27 1-636).
T1 sequence: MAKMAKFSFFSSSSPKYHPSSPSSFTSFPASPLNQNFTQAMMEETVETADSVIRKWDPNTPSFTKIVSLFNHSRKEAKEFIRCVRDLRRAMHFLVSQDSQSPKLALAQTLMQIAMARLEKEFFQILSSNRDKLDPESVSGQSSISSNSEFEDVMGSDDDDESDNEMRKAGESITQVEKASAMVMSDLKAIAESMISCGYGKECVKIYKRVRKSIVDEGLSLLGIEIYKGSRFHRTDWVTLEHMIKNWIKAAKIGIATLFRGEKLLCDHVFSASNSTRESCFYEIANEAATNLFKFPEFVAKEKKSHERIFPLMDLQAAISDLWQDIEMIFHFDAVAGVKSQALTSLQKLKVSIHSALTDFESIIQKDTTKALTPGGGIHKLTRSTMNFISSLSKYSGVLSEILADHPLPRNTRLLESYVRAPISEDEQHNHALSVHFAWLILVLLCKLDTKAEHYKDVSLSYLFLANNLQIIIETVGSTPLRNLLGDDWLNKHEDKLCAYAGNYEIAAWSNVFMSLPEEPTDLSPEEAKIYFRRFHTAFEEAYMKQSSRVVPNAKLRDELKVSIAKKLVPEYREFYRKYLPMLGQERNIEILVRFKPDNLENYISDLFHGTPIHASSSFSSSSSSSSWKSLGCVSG

The target of experiment [2] is T2, CLuc-EXO70H4 (A. thaliana, UniProt Q9SF51 1-628).
T2 sequence: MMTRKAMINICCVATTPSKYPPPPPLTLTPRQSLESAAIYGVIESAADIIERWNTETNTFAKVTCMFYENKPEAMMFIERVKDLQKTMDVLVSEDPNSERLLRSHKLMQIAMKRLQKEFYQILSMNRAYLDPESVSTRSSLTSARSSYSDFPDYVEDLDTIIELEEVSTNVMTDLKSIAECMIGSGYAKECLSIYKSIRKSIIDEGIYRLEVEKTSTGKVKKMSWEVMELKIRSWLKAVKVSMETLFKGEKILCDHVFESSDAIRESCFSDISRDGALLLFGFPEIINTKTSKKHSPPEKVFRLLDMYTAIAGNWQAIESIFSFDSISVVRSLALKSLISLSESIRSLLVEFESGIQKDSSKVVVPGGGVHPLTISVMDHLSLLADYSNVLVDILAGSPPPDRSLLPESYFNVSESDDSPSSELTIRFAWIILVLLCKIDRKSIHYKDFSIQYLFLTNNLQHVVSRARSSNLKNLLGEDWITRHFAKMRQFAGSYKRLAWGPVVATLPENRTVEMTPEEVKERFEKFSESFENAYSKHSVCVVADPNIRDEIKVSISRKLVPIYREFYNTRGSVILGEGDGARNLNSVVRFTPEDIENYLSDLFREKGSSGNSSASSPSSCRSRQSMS

Another experiment concerns the target T3, CLuc-EXO70B2 (A. thaliana, UniProt Q9LMJ4 1-599).
T3 sequence: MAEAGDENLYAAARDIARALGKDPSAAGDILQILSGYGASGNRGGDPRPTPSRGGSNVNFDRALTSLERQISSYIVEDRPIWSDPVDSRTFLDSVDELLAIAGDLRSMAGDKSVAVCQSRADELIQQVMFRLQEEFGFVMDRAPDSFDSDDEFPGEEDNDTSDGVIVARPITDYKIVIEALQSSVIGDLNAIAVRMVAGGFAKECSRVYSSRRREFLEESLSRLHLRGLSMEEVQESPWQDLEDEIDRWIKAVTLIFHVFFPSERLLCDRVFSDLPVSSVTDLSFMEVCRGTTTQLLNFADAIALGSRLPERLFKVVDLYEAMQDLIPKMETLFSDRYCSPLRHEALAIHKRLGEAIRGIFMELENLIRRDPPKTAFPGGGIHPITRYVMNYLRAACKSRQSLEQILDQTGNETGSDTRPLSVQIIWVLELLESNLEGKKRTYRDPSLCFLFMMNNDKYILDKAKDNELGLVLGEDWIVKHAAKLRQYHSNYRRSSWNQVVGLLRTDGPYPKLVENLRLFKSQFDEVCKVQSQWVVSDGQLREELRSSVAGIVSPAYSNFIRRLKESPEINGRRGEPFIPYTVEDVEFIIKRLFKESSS

Experiment [3] addresses CLuc-EXO70H7 (A. thaliana). The note with it: scale: relative to the calmodulin positive control.
In experiment [4] the target is T1, CLuc-EXO70H1. This is another data set of the same source.
A further experiment deals with T4, CLuc-EXO70H2 (A. thaliana, UniProt O80625 1-637).
T4 sequence: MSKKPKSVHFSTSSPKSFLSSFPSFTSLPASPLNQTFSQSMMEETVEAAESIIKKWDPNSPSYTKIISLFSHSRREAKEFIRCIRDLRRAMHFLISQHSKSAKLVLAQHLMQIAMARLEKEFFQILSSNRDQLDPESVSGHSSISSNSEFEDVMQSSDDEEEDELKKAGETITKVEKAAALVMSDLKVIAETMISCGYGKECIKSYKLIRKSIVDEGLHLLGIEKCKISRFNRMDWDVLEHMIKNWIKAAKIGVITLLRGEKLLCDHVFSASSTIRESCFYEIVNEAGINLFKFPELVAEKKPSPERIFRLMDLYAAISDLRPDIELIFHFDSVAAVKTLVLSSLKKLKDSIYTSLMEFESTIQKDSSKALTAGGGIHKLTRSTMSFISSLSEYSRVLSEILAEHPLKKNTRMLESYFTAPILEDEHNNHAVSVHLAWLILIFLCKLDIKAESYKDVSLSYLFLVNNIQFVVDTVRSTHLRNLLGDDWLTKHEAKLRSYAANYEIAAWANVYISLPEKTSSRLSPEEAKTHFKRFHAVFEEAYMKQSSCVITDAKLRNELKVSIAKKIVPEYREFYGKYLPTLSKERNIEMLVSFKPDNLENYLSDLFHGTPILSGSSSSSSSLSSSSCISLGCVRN

For experiment [5], the target named is T2, CLuc-EXO70H4. The source holds these as a separate data set.

B1: MLO12-NLuc (natural protein)
chain: MAIKERSLEETPTWAVAVVCFVLLFISIMIEYFLHFIGHWFKKKHKKALSEALEKVKAELMLLGFISLLLVVLQTPVSEICIPRNIAATWHPCSNHQEIAKYGKDYIDDGRKILEDFDSNDFYSPRRNLATKGYDKCAEKGKVALVSAYGIHQLHIFIFVLAVFHVLYCIITYALGKTKMKKWKSWERETKTIEYQYANDPERFRFARDTSFGRRHLNIWSKSTFTLWITCFFRQFFGSVTKVDYLTLRHGFIMAHLPAGSAARFDFQKYIERSLEQDFTVVVGISPLIWCIAVLFILTNTHGWDSYLWLPFLPLIVILIVGAKLQMIISKLGLRIQEKGDVVKGAPVVEPGDDLFWFGRPRFILFLIHLVLFTNAFQLAFFVWSTYEFTLKNCFHHKTEDIAIRITMGVLIQVLCSYITLPLYALVTQMGTSMRPTIFNDRVANALKKWHHTAKKQTKHGHSGSNTPHSSRPTTPTHGMSPVHLLHNYNNRSLDQQTSFTASPSPPRFSDYSGQGHGHQHFFDPESQNHSYQREITDSEFSNSHHPQVDMASPVREEKEIVEHVKVDLSEFTFKK
Take B1: the relative luminescence in the experiment with CLuc-EXO70H1 [1] is ~0.37 relative to the calmodulin positive control.

B2: MLO2-NLuc (natural protein)
chain: MADQVKERTLEETSTWAVAVVCFVLLFISIVLEHSIHKIGTWFKKKHKQALFEALEKVKAELMLLGFISLLLTIGQTPISNICISQKVASTMHPCSAAEEAKKYGKKDAGKKDDGDGDKPGRRLLLELAESYIHRRSLATKGYDKCAEKGKVAFVSAYGIHQLHIFIFVLAVVHVVYCIVTYAFGKIKMRTWKSWEEETKTIEYQYSNDPERFRFARDTSFGRRHLNFWSKTRVTLWIVCFFRQFFGSVTKVDYLALRHGFIMAHFAPGNESRFDFRKYIQRSLEKDFKTVVEISPVIWFVAVLFLLTNSYGLRSYLWLPFIPLVVILIVGTKLEVIITKLGLRIQEKGDVVRGAPVVQPGDDLFWFGKPRFILFLIHLVLFTNAFQLAFFAWSTYEFNLNNCFHESTADVVIRLVVGAVVQILCSYVTLPLYALVTQMGSKMKPTVFNDRVATALKKWHHTAKNETKHGRHSGSNTPFSSRPTTPTHGSSPIHLLHNFNNRSVENYPSSPSPRYSGHGHHEHQFWDPESQHQEAETSTHHSLAHESSEPVLASVELPPIRTSKSLRDFSFKK
Regarding B2, the relative luminescence with CLuc-EXO70H1 [1] is ~0.39 relative to the calmodulin positive control; with CLuc-EXO70H4 [2], ~0.4 relative to the calmodulin positive control; with CLuc-EXO70B2, ~0.56 relative to the calmodulin positive control.

B3: MLO6-NLuc (natural protein)
chain: MADQVKEKTLEETSTWAVAVVCFVLLLISIVIEKLIHKIGSWFKKKNKKALYEALEKVKAELMLMGFISLLLTIGQGYISNICIPKNIAASMHPCSASEEARKYGKKDVPKEDEEENLRRKLLQLVDSLIPRRSLATKGYDKCAEKGKVAFVSAYGMHQLHIFIFVLAVCHVIYCIVTYALGKTKMRRWKKWEEETKTIEYQYSHDPERFRFARDTSFGRRHLSFWSKSTITLWIVCFFRQFFRSVTKVDYLTLRHGFIMAHLAPGSDARFDFRKYIQRSLEEDFKTIVEINPVIWFIAVLFLLTNTNGLNSYLWLPFIPFIVILIVGTKLQVIITKLGLRIQEKGDVVKGTPLVQPGDHFFWFGRPRFILFLIHLVLFTNAFQLAFFVWSTYEFGLKNCFHESRVDVIIRISIGLLVQILCSYVTLPLYALVTQMGSKMKPTVFNERVATALKSWHHTAKKNIKHGRTSESTTPFSSRPTTPTHGSSPIHLLRNAPHKRSRSVDESFANSFSPRNSDFDSWDPESQHETAETSNSNHRSRFGEEESEKKFVSSSVELPPGPGQIRTQHEISTISLRDFSFKR
On to B3, for which the relative luminescence in experiment [3] was over 0.24; with CLuc-EXO70H1 [4] it was > 0.24 relative to the calmodulin positive control; with CLuc-EXO70H2 it was > 0.24 relative to the calmodulin positive control; with CLuc-EXO70H4 [5], > 0.24 relative to the calmodulin positive control; in the experiment with CLuc-EXO70H4 [2], ~0.67 relative to the calmodulin positive control.

The values above are taken from article doi:10.1101/2022.12.30.521597 (bioRxiv, 2022).
